Data from the supplement of paper PMC9170038.

Test system: MS2 coat protein
Assay: apparent KD of MS2 coat protein; higher = weaker reporter binding
Details: Eterna round: R107
Method: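 RNA-MaP round R107: designed RNA switches with theophylline, tryptophan, arginine or FMN aptamers are transcribed on-chip within common flanks. They are titrated with SNAP-549-labelled MS2 coat protein in RNA-MaP buffer (100 mM Tris pH 7.5, 80 mM KCl, 4 mM MgCl2), without ligand or with the indicated ligand. Median apparent KD per design.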

[1] = input ligand: theophylline 20 uM
[2] = input ligand: theophylline 2 mM
[3] = input ligand: tryptophan 2.4 mM

| Sequence | apparent KD of MS2 coat protein (input ligand: arginine 13.2 mM) | apparent KD of MS2 coat protein [1] | apparent KD of MS2 coat protein [2] | apparent KD of MS2 coat protein [3] | apparent KD of MS2 coat protein (input ligand: none) |
| --- | --- | --- | --- | --- | --- |
| ACAUGAGGAUCACCCAUGUUAAACAGGGUGCGAGGACCGGUACGGCCGCCACUCGGACAUUAUUACGAGUGAAUGGUAACGAUGU [#13 Exclusion Tryptophan A] | 0.0211 µM | 0.0336 µM | 0.0265 µM |  |  |
| ACAUGAGGAUCACCCAUGUUCCUCAUUGAUACCAGUGAAUUUAGACGCCCUUGGCAGCGAGUUUUUUUAUAAGUUUUUUUUUUUU [6.J] | 0.276 µM | 0.913 µM |  | 0.874 µM |  |
| ACAUGAGGAUCACCCAUGUUGCUGACAGAAGGAGCGUGAUUAAGCACAGGUAGGUCGCUGUUGGUAUCGAGCGUUAGCUCGAUAC [SSArg A #8] | 0.0346 µM | 0.0417 µM | 0.0337 µM | 0.05 µM | 0.032 µM |
| ACAUGUUGGUGGUACCAACGAAGGCGGAAACGAGGACCGGUACGGCCGCCACUCGGCGACAUGAGGAUCACCCAUGUGGUUAAAA [Exclusion - Tryptophan A (Freestyle 3)] |  | 0.134 µM | 0.0957 µM | 0.07 µM | 0.398 µM |
| ACAUUUAACUGAAGGAGCGUGAUAUUUACAUGAGGAUCACCCAUGUCUUUCAUGAUAUAUUCACAGGUAGGUCGCAGACUAAUGA [JR_ExcArginiB_Sub006] | 0.118 µM | 0.16 µM | 0.305 µM | 0.184 µM | 0.125 µM |
| ACCUGCGUUUGAUUCUAUCAGACGCAGGUUCGAGGACCGGUACGGCCGCCACUCGGACAUGAGGAUCACCCAUGUUUGACAUGGG [#04 Exclusion Tryptophan A] | 0.134 µM | 0.281 µM | 1.01 µM |  |  |
| ACGACGCAUAGUGAUACCAGUAGAACAUGAGGAUCACCCAUGUCUGUGGCGCACCACCUCUGCCCUUGGCAGCACUAUGCGUCAG [SSTheo B #9] | 0.0126 µM | 0.0174 µM |  | 0.0141 µM |  |
| ACGAUAGCACAAGAGGAUCACCCUUGUGAUACCAGCCUGGAAACAGGCCCUUGGCAGCACACAAAUAAAUUGUAACUAUCGAAUA [TheoAX5 #MicroSwitchBubble #AlternativeMS2] | 0.0225 µM | 0.0439 µM | 0.112 µM | 0.0293 µM | 0.0236 µM |
| ACGAUAGGACCUGAGGAACACCCAGGUGAUACCAGCCUGGAAACAGGCCCUUGGCAGCACCAAUACUCCAAUAACCUAUCGAAUA [TheoAX 12 #MicroSwitchBubble #AlternativeMS2] | 0.141 µM | 0.521 µM | 0.366 µM | 0.518 µM | 0.547 µM |
| ACGCUGAUUGAUUACAAUCAGCGAAAAGAUACCAGUGGGUAAUCCCACCCUUGGCAGCUUAAAUAUGAGGAUCACCCAUAUGGUA [TheoAS 18 #MS2Right #BothOrNeither #AlternativeMS2] | 0.0546 µM | 0.155 µM | 0.412 µM | 0.0861 µM | 0.108 µM |
| ACUAACUAUAGUGAUACCAGACGUACAUGAGGAUCACCCAUGUUACAUUCUUGGUUAAAAGUCCCUUGGCAGCACGAUAAGUUCG [JR_Nu_ExcTheophyB_Sub025] | 0.0097 µM | 0.0112 µM |  | 0.01 µM |  |
| AGACAUGAGGAUCACCCAUGUAGUACGGAUACCAGAUCCAGAUGUAUCCCUUGGCAGCUGUGGUACAGCGUUACAUCGCUCGUAG [Exclusion - Theophylline A (Freestyle 21)] | 0.0104 µM | 0.0184 µM | 0.0166 µM | 0.0162 µM | 0.0133 µM |
| AGAGCAUUGACGGCCGCCACUCAUGUCACAUGAGGAUCACCCAUGUGAUGGGUAAUCGCCCGGUUGAGGACCGGGUCAAUGCUCA [Omei Tryp SS B v3] | 0.00669 µM | 0.0169 µM | 0.00846 µM | 0.0107 µM | 0.00699 µM |
